The source of these data is US20100048868A1.

This test concerns the target recombinant human HER2 extracellular domain (human) (UniProt P04626). The experiment in a line: SPR (Biacore 2000), HER2-ECD immobilised, 1:1 model, 25 C. (In general: In SPR one partner is held on a chip, and binding of the other changes the refractive index at the surface.)

Usually Kd stands for the constant that tells how readily two partners part at equilibrium. A word on the koff: it is the rate constant with which the complex falls apart. As to His6-(ZHER2 A)2 (designed binder), the dissociation constant Kd was found to be 3 nM and the koff came to 0.00076 s⁻¹.
